Experiments:
Full-length Aβ42 = assay: cell-based or functional assay
Full-length Aβ40 = assay: cell-based or functional assay

B1: p3_(42) Peptide Aβ_(17-42) (peptide)
peptide: LVFFAEDVGSNKGAIIGLMVGGVVIA
notes: numbers count on: the Aβ peptide; Used as SEC-purified monomer, as lag-phase oligomer preparation and as fibril seeds; source: synthetic peptide, bought: EZBiolab Inc; solubilized at pH 10, monomer isolated by SEC
- t50 of ThT fibril growth of Aβ42 monomer with p3_(42) fibril seeds (10% w/w), as a percentage relative to self-seeding (Full-length Aβ42): > 70 % relative to self-seeding t50

B2: p3_(40) Peptide Aβ_(17-40) (peptide)
peptide: LVFFAEDVGSNKGAIIGLMVGGVV
notes: as for B1
- t50 of ThT fibril growth of Aβ40 monomer with p3_(40) fibril seeds (10% w/w), as a percentage relative to self-seeding (Full-length Aβ40): 70 % relative to self-seeding t50

Source: PMC11868391, “The p3 peptides (Aβ_(17-40/42)) rapidly form amyloid fibrils that cross-seed with full-length Aβ” (Nature Communications, 2025)
